Test: soluble on expression in E. coli; label from the status in PepcDB or PDB records

Sequence	soluble on expression in E. coli
INVIISTIISTKRADDFIIAMCNLIQRLTIDSLHIVGDIYDRGPGAHIIMDTLCNYHNFDIQWGNHDILWMGAASGNDSCIANVIRMSMRYGNLGTLEDGYGINLLPLATFAMDTYADDPCTIFMPKMNFADTNYNEKTLRLITQMHKAITIIQFKLEAEIIDRRPEFGMSNRKLLEKIDFERGVFVYEGKEYALRDTNFPTVDPADPYRLTDEERELVEKIHYSFMNSEKLKKHMRCLFTYGGMYLVSNSNLLYHASVPLNEDGSFKHVKIRGKEYWGRKLLDKADQLIRTAYFDEEGEDDKEFAMDYIWYMWCGPEAPLFDKDKMATFERYFLEDKEIQKEKKGYYYTLRNREDICDQILDEFGALGPHSHIINGHVPVKTIQGEQPMKANGKLFVIDGGFSKAYQPETGIAGYTLVYHSHGMQL	not soluble
MLPFAPQDEPWDREMEVFSGGGASSGEVNGLKMVDEPMEEGEADSCHDEGVVKEIPITHHVKEGYEKADPAQFELLKVLGQGSFGKVFLVRKKTGPDAGQLYAMKVLKKASLKVRDRVRTKMERDILVEVNHPFIVKLHYAFQTEGKLYLILDFLRGGDVFTRLSKEVLFTEEDVKFYLAELALALDHLHQLGIVYRDLKPENILLDEIGHIKLTDFGLSKESVDQEKKAYSFCGTVEYMAPEVVNRRGHSQSADWWSYGVLMFEMLTGTLPFQGKDRNETMNMILKAKLGMPQFLSAEAQSLLRMLFKRNPANRLGSEGVEEIKRHLFFANIDWDKLYKREVQPPFKPASGKPDDTFCFDPEFTAKTPKDSPGLPASANAHQLFKGFSFVATSIAEEYKITPITSANVLPIVQINGNAAQFGEVYELKEDIGVGSYSVCKRCIHATTNMEFAVKIIDKSKRDPSEEIEILMRYGQHPNIITLKDVFDDGRYVYLVTDLMKGGELLDRILKQKCFSEREASDILYVISKTVDYLHCQGVVHRDLKPSNILYMDESASADSIRICDFGFAKQLRGENGLLLTPCYTANFVAPEVLMQQGYDAACDIWSLGVLFYTMLAGYTPFANGPNDTPEEILLRIGNGKFSLSGGNWDNISDGAKDLLSHMLHMDPHQRYTAEQILKHSWITHRDQLPNDQPKRNDVSHVVKGAMVATYSALTHKTFQPVLEPVAASSLAQRRSMKKRTSTGL	soluble
MSLAIWAAGDTAGVATVVRTLRSAPRPPGAAMVVAPDGSVSGSVSGGCVEGAVYELAAEVAQTGIPRLEHYGVSDDTAFAVGLTCGGIIDVFVEPVSRATFPELGELADDIGAQRPVAIATVIAHPDERRVGRRLVIRPDTKSPVTGSLGSARADAAVIDDARGLLAVGRSEILEYGPDGQRRGEGMEVFVSSHAPRPRMLVFGAIDFAAALARQGSFLGYRVTVCDARAVFATPARFPTADDVVVAWPHRYLAAQAEAGGIDERTVICVLTHDPKFDVPVLEVALRLGVGYVGAMGSRKTHDDRMDRLRAAGLTDAELSRLSSPIGLDLGARTPEETAVSIAADIIARRWGGGGRPLADIAGRIHHDAQVAGEFKDYLTRHEGHHHHHH	soluble
MESLKSNLFLTREAYLEAFETIMTPLKTAILTSEKPGVNFGSSGAVYDQQHAEMEALIRPLWGIGPYWVTCKDDVLRDAYVEKLIAGTDPSSPDYWGVIVDYDQYIVEAAALSLTLLLHKTYFWSCFSEKQQENIMVWLNKALGCKIPKNNWTFFKVLIRLALEGCGQVINQAELEEELALIECMYLGDGWYMDGKTTQRDYYISFAFHYYSLIYVKFMRERDPIRAKRFTERAVMFAQDYLYYFDEEGEALPYGRSQTYRFAQGAFFAALIFAEVEALPWGQIKTLLAKHLHCWMQQAIFTYDGRLSIGYHYENLVMAEGYNAPGSPYWAFKTFLLLAVDQDHPFWRAEPLAIKREEKRLEHHHHHH	not soluble
SGDAASHEERMNNYRKRVGRLFMEQKAAQPDAVKLPSGLVFQRIARGSGKRAPAIDDKCEVHYTGRLRDGTVFDSSRERGKPTTFRPNEVIKGWTEALQLMREGDRWRLFIPYDLAYGVTGGGGMIPPYSPLEFDVELISIKDGGKGRTAEEVDEILRKAEEDREDM	soluble
MSLNKAILHDHLDGGLRPSTALELAKNDSYKPLLEIENISSFFDRSSSNSLEDYLEAFIHTTALMNKYENLERIAFEAAEDMHNCGINLYESRYAPLYSVNENLSIKDVLESINSGFKQAENLYGIQSGLILCGMRNDLKNVESVGEIAVKYKDLIIGFDIAGPELNFRPSLFSSTFKKVKNAGVNITIHAGEGDNVESIKDALENGAKRIGHGVRIIEDINLENNKLGETASLIRDKQIPLEICITSNIHTNMYKSYESHPIKDLVDLGFNISLNTDNRLMSNTDIVKEMNICKNIGIKNPENLLEMSASYSFLNEGHHHHHH	not soluble
VEAHPSLTLFSQLRIEHEDMAIAEDDWAWLRHKGHLRLGAALDETSPFNVRLDDENYEGITADVATLVGQLLGMRIKVVSFDTHADAVAALAAGKIDLLGSHYSSAGDSSLVLSQPYARDRLAVFKRMGEKRNSPEDLAGLSVAVAREHVGELRQRFPRARFVVFGSHDEAVAAVAFGHTDLYLDDVLSAYHRINRSYYGYVRFERFADARLEGGYGFLLRRGDTNLLRVVNSAIGAINQDRLESIARRWVGSGSLPTGQRIALTPQESRWIARHPVVRLVINDDLAPLAFFNSDETFSGIASDLLDMISRRTGLHFQVTPRSGGFPEQIGVLARKEADLAIMSRSSKREEMLRFTRSFLSTSYVLVTRADDKGRAEIPGSLDGKRIAIPAGHVGMQQVRERYPQASMVEVGVALDAMNLVYEGRADAAVVPLVTARYYIVRLFRERLAIADLVPIGAATAHFAVRRGDAELQSILDKALLSISPDDLSDIVNRWRSPPGMSGQT	soluble
GMGSSRKVIITCAVTGAIHTPSMSPYLPVTPDEVAQASIGAAEAGAAVIHLHARDPRDGRPTQDPAAFAEFLPRIKSNTDAVINLTTGGSPHMTVEERLRPATHYMPELASLNMGSMNFGLYPMLERFKEFAHGWEREHLERSRDLVFKNTFADIEFILKTCGGNGTRFEFECYDTSHLYNLAHFVDRKLATPPFFVQTVFGLLGGIGPHPEDLAHMRRTADRLFGADYVWSILGAGRHQIPLASIGAAQGANVRVGLEDSLWIAPGELAETNAAQVRKIRQVIEGLSLEVASPAEARTMLGLKGPQNVNF	soluble
MANAYKQAGVDIEAGYEAVSRMKKHVQTTMRKEVLGGLGGFGGMFDLSKFALEEPVLVSGTDGVGTKLMLAFMADKHDTIGIDAVAMCVNDIVVQGAEPLFFLDYIACGKAEPSKIENIVKGISEGCRQAGCALIGGETAEMPGMYSTEEYDLAGFTVGIVDKKKIVTGEKIEAGHVLIGLASSGIHSNGYSLVRKVLLEDGELSLDRIYGRLELPLGEELLKPTKIYVKPILELLKNHEVYGMAHITGGGFIENIPRMLPEGIGAEIELGSWKIQPIFSLLQEVGKLEEKEMFNIFNMGIGMVVAVKEEDAKDIVRLLEEQGETARIIGRTVQGAGVTFNGGKAL	soluble
MSKNYHIAVLPGDGIGPEVMAQALKVMDAVRSRFDMRITTSHYDVGGIAIDNHGHPLPKATVEGCEQADAILFGSVGGPKWENLPPESQPERGALLPLRKHFKLFSNLRPAKLYQGLEAFCPLRADIAANGFDILCVRELTGGIYFGQPKGREGSGQYEKAFDTEVYHRFEIERIARIAFESARKRRRKVTSIDKANVLQSSILWREIVNDVAKTYPDVELAHMYIDNATMQLIKDPSQFDVLLCSNLFGDILSDECAMITGSMGMLPSASLNEQGFGLYEPAGGSAPDIAGKNIANPIAQILSLALLLRYSLDANDAATAIEQAINRALEEGVRTGDLARGAAAVSTDEMGDIIARYVAEGV	soluble
GQQINIHKPPIPERVQTIQGQVLFTKDDIVHGQQVWQSIGGQQIGSVWGHGSYVAPDWTADWLHREATIMLDSWAQEQGHEHYSDLPAEQQAALKERLKKTMRSNTYDAQTGTITLDDLRVDAMRSNAQYYSELFRDGHEHYAIPQNALNDKAAADDMTAFFWWTSWSASTNAPDSDISYTQNWPHEPLIDNAPPTGNI	not soluble
MPTPKAFALLGPTAGGKTALALKIAETLPVEIISLDSALVYRDMDIGTAKPSASERAFVPHHLIDIIPPTESYSAARFVEDCTRLVGEISSRGRFALIVGGTMMYFRALTQGLNDLPEADACLRADLDEQKQMYGLDFLYRTLQKVDPETACRLKPNDSQRIGRALEVYYLTGKPMSTHLGSLTSHTLPFDLHTAALIPENRARLHENIALRFHLMLEQGFIGEVENLRRRYPGLTAYSPAIRCVGYRQAWKYLDGKTDFPAFVEKGIAATRQLAKRQLTWLRKTPLDCVADPFSDCTSCTRLIEAAKRFFGA	not soluble
MAMEIGEDEWKVCCGSSEFAKQMSTSGPLTSQEAIYTARDIWFNQVNVTDWLEAFSAHPQIGNTPSPSINSDFARRSVSEQSTAFATTSASALQELAEWNVLYKKKFGFIFIICASGRTHAEMLHALKERYENRPIVELEIAAMEQMKITELRMAKLFSDKAKVISETDSSSSPVSTKPQDRLRIIGGHLNVAAEAKAPKRSRPPITTHVLDVSRGAPAAGVEVHLEVWSGTTGPSFVHGGGGVWSSVGTSATDRDGRSGPLMDLVDALNPGTYRISFDTAKYSPGCFFPYVSIVFQVTESQKWEHFHVPLLLAPFSFSTYRGS	soluble
MARINRISITLCALLFTTLPLTPMAHASKQARESSATTHITKKADKKKSTATTKKTQKTAKKAASKSTTKSKTASSVKKSSITASKNAKTRSKHTVNKTASASLTEKCTKRKGYKSHCVKVKNAASGTLADAHKAKVQKATKVAMNKLMQQIGKPYRWGGSSPRTGFDCSGLVYYAYKDLVKIRIPRTANEMYHLRDAAPIERSELKNGDLVFFRTQGRGTADHVGVYVGNGKFIQSPRTGQEIQITSLSEDYWQRHYVGARRVMTPKTLR	soluble
MHKDTHCAVVIDCWMNKLGEVNFENRPSRYPAFVEDVRKICGTKEIVFGLEDTRGFGRNLAAYLVGRKFEVKHVNPAYTSAVRLANPIIYKDDSYDAYCVARVLRDMVDTLKDAKHEDIFWTIRQMVKRRDLIVKSNVMNKNQLHSQLAYSYPSYRKFFAMIDSKSALCFWENYPSPEYIWNTIPEEIYQTIKPVHQALKIQRIHEIISMIERDGDTRKDYQPERDFIVRNIVKDIRHNKELIAEIDDELRKLIPLTGYKLHTMPGIDLVTEAQIISEIGDINRFPDSDKLARFMGLAPVQFSSAGKGKDQRCRNGNRALNAIFHFLAIQMVAVSASGKPRHPVFREYFEQKVKEGKNKPQALVCVARRLVRIIYGMMKTRTEYRPYEKVDDKN	soluble
SNTLRDFFTNETYTTIENEQHVLTEYRLPGSIERRYYSEEATAPTTVRSVQHVLLPENEEASSDKDLSILSSSFIHKVYKLADKQEAKKKRYSADVNGEKVFFVIKKGLSVNGQSAMMLSYALDSYRDDLAYTLFKQ	not soluble
MNTANFSAQQLQAERLLLLPSYILLKEGLVQDQAILVENGIFQDIGTHVELTKKYPDIVPVKLQDQLIMPGMIDGHHHLTQSFAKSLAYGEPSEIFKRIWVPLESNLNEQFVYLCTKLAALESLRGGFTTVCDAGTRSEIGMQLMVRALEETGLRCVLSLICNDGRAHSTLELRQNILENAQIFIKSYKQHKNVHPSLAISIPEVASDDMLYEVSKLCANSNIIFQVHVNEHLASVERSIIQQGMRPLEHLAKVGALGPQTLIAHATMLTPSELLLLQRTDTAVSYNPVASQWKGNAVASAHLMHELNIRFALGTDATRADGFRLLDAAEATQKLIFGIPTGDCSTGGGWMWLDHATTAGAEAVGLSQLTGSISIGKQADFLIIDLDTPEFCTSQDITWDMVRLCQRDQIQAVFVGGRICLWQGWPLDWDAKELMCRMKVLTKKAIEASPIQKLHPTAEQHRQLHGQTSQQQSVHI	not soluble
